Results published in the supplement of paper PMC10567573.

B1: ZNF8 (parent)
chain: VHVIGVEEPSVGASMLFDIREST

Variants of: B1
Experiment: protein stability index of a GFP-peptide fusion (GPS, HEK-293T) (PSI 1-6); higher = more stable
Details: c terminus: native
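Further: lentivirally expressed fusions sorted by FACS into six bins by GFP to DsRed ratio, PSI derived from sequencing read proportions per bin multiplied by bin number.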

Protein stability index, by site and new letter:
L16: M 1.94 | D 3.53 | V 2 | G 2.95 | N 3.6 | F 1.58 | W 1.41 | K 2.64 | A 2.52 | C 2.19 | T 2.44 | Q 2.87 | P 2.48 | Y 2.31 | I 2.06 | S 2.83 | R 2.98 | E 3.17 | H 2.71
E21: V 1.78 | S 1.76 | W 3.39 | L 2.64 | A 2.37 | R 1.53 | T 2.01 | F 2.77 | Q 1.29 | M 2.04 | H 1.95 | D 2.38 | K 2.2 | I 3.55 | G 2.42 | N 2.08 | C 2.9 | P 1.42 | Y 2.4
A13: I 2.78 | F 2.8 | N 2.31 | H 1.95 | D 2.69 | M 1.57 | G 2.74 | L 2.41 | Y 1.66 | K 2.2 | Q 1.98 | S 1.96 | E 2.61 | V 1.87 | C 1.34 | R 1.97 | P 2.51 | T 1.93 | W 3.12
V11: M 1.82 | K 2.27 | F 2.17 | P 2.65 | N 2.35 | I 1.91 | R 1.9 | D 2.69 | Q 2.1 | E 2.87 | A 2.38 | S 2.33 | G 2.28 | L 1.85 | W 1.44 | H 2.42 | C 1.91 | Y 1.92 | T 2.24
S14: K 2 | R 1.9 | A 1.86 | P 2.63 | D 2.62 | F 2.28 | M 2.31 | W 3.13 | Y 2.78 | C 1.54 | V 3.14 | Q 2.12 | G 1.92 | T 2.26 | N 2.4 | E 2.28 | L 2.31 | H 1.95 | I 3.13
I19: K 3.14 | L 2.04 | E 3.34 | T 2.91 | R 2.7 | S 3.29 | H 3.37 | Q 3.4 | Y 2.06 | C 2.37 | V 2.38 | A 3.07 | G 2.72 | F 1.64 | W 1.51 | M 2.33 | P 3.1 | N 3.23 | D 3.65
R20: W 2.43 | H 2.68 | P 2.48 | T 2.4 | M 1.79 | L 1.55 | A 1.64 | C 1.85 | D 2.96 | N 3.1 | V 1.57 | F 2.49 | Y 1.81 | I 1.86 | G 2.37 | Q 2.36 | S 2.63 | E 3.26 | K 2.4
I4: V 2.54 | N 3.43 | Q 3.47 | M 2.77 | S 3.63 | Y 2.16 | L 2.51 | R 2.9 | W 1.94 | P 3.88 | T 3.3
D18: K 1.42 | S 1.75 | A 1.69 | V 2.9 | F 2.25 | Y 2.55 | C 2.4 | T 1.69 | M 2.02 | L 3 | E 1.31 | R 1.59 | H 1.39 | N 2.48 | Q 1.98 | I 3.24 | G 1.65 | W 2.19 | P 1.84
G5: R 1.61 | D 3.11 | N 2.18 | A 1.63 | I 2.51 | F 2.47 | M 2.84 | P 2.36 | S 1.56 | Q 1.66 | Y 2.35 | H 1.6 | W 2.37 | E 2.42 | V 2.71 | T 2.24 | C 2.82 | K 1.95 | L 3.04
S10: A 2.58 | Q 2.28 | T 2.24 | N 2.23 | E 2.25 | C 1.85 | L 1.84 | R 1.71 | H 2.1 | W 1.68 | G 2.1 | M 1.52 | K 1.99 | D 2.48 | P 2.03 | I 2.91 | Y 2.02 | V 2.16 | F 1.26
V6: I 1.75 | K 2.61 | D 3.75 | S 2.75 | W 1.76 | P 1.82 | T 2.33 | A 2.52 | H 2.46 | N 3.61 | Y 1.9 | R 2.35 | G 2.54 | C 1.96 | F 2.27 | E 2.99 | Q 2.64 | L 2.25 | M 1.76
E7: R 1.33 | W 3.4 | T 1.61 | M 2.14 | L 1.92 | Y 2.91 | N 1.88 | F 3.54 | A 1.69 | Q 1.55 | P 2.2 | V 2.84 | H 1.15 | S 1.94 | I 1.7 | G 1.94 | K 1.72 | D 1.86 | C 1.81
G12: C 1.78 | H 2.1 | M 1.71 | Q 1.88 | L 1.52 | Y 2.95 | P 2.16 | K 1.9 | N 2.29 | V 1.7 | R 2.4 | W 2.88 | S 2.19 | E 2.45 | D 2.87 | A 1.93 | I 1.78 | F 2.1 | T 1.56
P9: D 2.53 | F 2.45 | M 2.09 | Q 2.17 | T 2.12 | V 1.44 | H 1.74 | I 2.47 | Y 2.19 | C 1.87 | G 2.31 | N 2.27 | A 2.65 | K 2.31 | R 2.27 | S 1.73 | W 3.09 | E 2.44 | L 2.23
M15: N 2.75 | K 3.24 | Q 2.75 | V 1.79 | E 3.67 | S 2.78 | W 2.34 | H 2.4 | F 1.62 | A 2.88 | D 2.93 | Y 2.2 | R 2.47 | T 2.3 | I 2.59 | C 2.49 | L 1.74 | P 2.78 | G 3.15
E8: Q 1.78 | P 1.75 | T 1.73 | L 2.75 | S 2.09 | K 2.11 | R 1.89 | C 3.48 | D 1.69 | Y 2.87 | H 2.08 | G 2.18 | V 2.45 | I 4.45 | M 1.95 | W 4.73 | A 2.25 | N 1.48 | F 2.49
F17: Q 3.41 | C 2.71 | K 3.4 | D 3.79 | H 3.17 | V 2.21 | W 2.28 | E 3.91 | N 3.33 | I 1.74 | P 3.77 | A 3.44 | M 2.52 | T 2.68 | R 3.08 | S 3.11 | G 3.66 | Y 2.15 | L 2.03
